{"source": "paper PMC12538056", "about": "“The effects of naturally occurring mutations on functionality of oxylipin metabolizing dehydrogenase reductase nine” (The Journal of Biological Chemistry, 2025)", "biological_target": "the molecule itself", "test": "not stated; purified water-soluble DHRS9 in solution; the method is shown only in Fig. S3", "data": [{"protein": "water-soluble form of mouse DHRS9 (dehydrogenase reductase 9) lacking the N-terminal transmembrane segment (enzyme, UniProt Q58NB6 17-319, looked up, mouse DHRS9 lacking the first 16 amino acids that form the transmembrane segment; residues 17 to 319; cDNA made by RT-PCR from mouse skin; Crystallised in complex with NADH; In the model, residues 21-319 (chain A) and 22-319 (chain B) are seen; the tag and residues 17-20/21 could not be located; also called soluble form of DHRS9; truncated DHRS9 protein; not shown: His10, N-terminal, kept) NYKGQLKIADIADKYVFITGCDTGFGNLAARTFDKKGFRVIAACLTESGSAALKAKTSERLHTVLLDVTDPENVKKTAQWVKSHVGEKGLWGLINNAGVLGVLAPTDWLTVDDYREPIEVNLFGLINVTLNMLPLVKKARGRVINVSSIGGRLAFGGGGYTPSKYAVEGFNDSLRRDMKAFGVHVSCIEPGLFKTELADPIKTTEKKLAIWKHLSPDIKQQYGEGYIEKSLHRLKSNTSSVNLDLSLVVGCMDHALTSLFPKTRYIAGKDAKTFWIPLSHMPAVLQDFLLLKQKVELANPKAV", "values": [{"measurement": "stoichiometry N", "result": 2}]}]}
